Measurements from article PMC12416549 (2024).
Positions count from the first letter of the chain named. Numbers in names are those of the source.

T1: TNFR1 (Homo sapiens, UniProt P19438)
T1 chain: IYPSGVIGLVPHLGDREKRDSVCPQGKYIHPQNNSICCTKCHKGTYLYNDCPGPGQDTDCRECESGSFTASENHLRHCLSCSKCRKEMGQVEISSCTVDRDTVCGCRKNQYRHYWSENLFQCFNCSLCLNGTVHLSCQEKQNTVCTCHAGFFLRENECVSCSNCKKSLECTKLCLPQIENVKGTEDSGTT

B1: A9S (designed binder)
chain: SMEEEVEKSAKEYEKKKKEAIEKHLEKLKAKDKEAAERFLKELEEAAKEYAKDEAKTMSEEEAKRRAKKYKEKVLLSELSEEEQKEIKEAEEKLVRTILKYVEEAAK
B2: K33S (designed binder)
chain: B1 chain with S9A, K33S
B3: E62V (designed binder)
chain: B1 chain with S9A, E62V
B4: E91D (designed binder)
chain: B1 chain with S9A, E91D
B5: K93T (designed binder)
chain: B1 chain with S9A, K93T
B6: V95A (designed binder)
chain: B1 chain with S9A, V95A
B7: K17R (designed binder)
chain: B1 chain with S9A, K17R
B8: E60P (designed binder)
chain: B1 chain with S9A, E60P
B9: A10D (designed binder)
chain: B1 chain with S9A, A10D
B10: K11E (designed binder)
chain: B1 chain with S9A, K11E
B11: E19Q (designed binder)
chain: B1 chain with S9A, E19Q
B12: L40G (designed binder)
chain: B1 chain with S9A, L40G
B13: Y101W (designed binder)
chain: B1 chain with S9A, Y101W
B14: Q84M (designed binder)
chain: B1 chain with S9A, Q84M
B15: I87W (designed binder)
chain: B1 chain with S9A, I87W
B16: L40H (designed binder)
chain: B1 chain with S9A, L40H
B17: E91T (designed binder)
chain: B1 chain with S9A, E91T
B18: Y70V (designed binder)
chain: B1 chain with S9A, Y70V
B19: L75F (designed binder)
chain: B1 chain with S9A, L75F
B20: A46Q (designed binder)
chain: B1 chain with S9A, A46Q
B21: A105W (designed binder)
chain: B1 chain with S9A, A105W
B22: K16L (designed binder)
chain: B1 chain with S9A, K16L
B23: E44R (designed binder)
chain: B1 chain with S9A, E44R
B24: E103Q (designed binder)
chain: B1 chain with S9A, E103Q
B25: K48G (designed binder)
chain: B1 chain with S9A, K48G
B26: I98D (designed binder)
chain: B1 chain with S9A, I98D
B27: E91L (designed binder)
chain: B1 chain with S9A, E91L
B28: K85S (designed binder)
chain: B1 chain with S9A, K85S
B29: A90E (designed binder)
chain: B1 chain with S9A, A90E
B30: E22F (designed binder)
chain: B1 chain with S9A, E22F
B31: M2E (designed binder)
chain: B1 chain with M2E, S9A
B32: A36Q (designed binder)
chain: B1 chain with S9A, A36Q
B33: E12A (designed binder)
chain: B1 chain with S9A, E12A
B34: E12R (designed binder)
chain: B1 chain with S9A, E12R
B35: K18T (designed binder)
chain: B1 chain with S9A, K18T
B36: A106V (designed binder)
chain: B1 chain with S9A, A106V
B37: T97H (designed binder)
chain: B1 chain with S9A, T97H
B38: K29H (designed binder)
chain: B1 chain with S9A, K29H
B39: A105S (designed binder)
chain: B1 chain with S9A, A105S
B40: A47W (designed binder)
chain: B1 chain with S9A, A47W
B41: A90M (designed binder)
chain: B1 chain with S9A, A90M
B42: Y101C (designed binder)
chain: B1 chain with S9A, Y101C
B43: E7K (designed binder)
chain: B1 chain with E7K, S9A
B44: S59H (designed binder)
chain: B1 chain with S9A, S59H
B45: D32P (designed binder)
chain: B1 chain with S9A, D32P
B46: E54V (designed binder)
chain: B1 chain with S9A, E54V
B47: E72F (designed binder)
chain: B1 chain with S9A, E72F
B48: K41D (designed binder)
chain: B1 chain with S9A, K41D
B49: K8A (designed binder)
chain: B1 chain with K8A, S9A
B50: R38T (designed binder)
chain: B1 chain with S9A, R38T
B51: E81A (designed binder)
chain: B1 chain with S9A, E81A
B52: E60H (designed binder)
chain: B1 chain with S9A, E60H
B53: L99G (designed binder)
chain: B1 chain with S9A, L99G
B54: A35H (designed binder)
chain: B1 chain with S9A, A35H
B55: E82G (designed binder)
chain: B1 chain with S9A, E82G
B56: K73R (designed binder)
chain: B1 chain with S9A, K73R
B57: Y13V (designed binder)
chain: B1 chain with S9A, Y13V
B58: K11R (designed binder)
chain: B1 chain with S9A, K11R
B59: A47T (designed binder)
chain: B1 chain with S9A, A47T

Molecular target: T1, TNFR1
Experiment: yeast display SC50

| apparent Kd (screen) | Binder |
| --- | --- |
| 490 pM | B1 |
| 869 pM | B2 |
| 2730 pM | B3 |
| 446 pM | B4 |
| 869 pM | B5 |
| 6430 pM | B6 |
| 653 pM | B7 |
| 2050 pM | B8 |
| 490 pM | B9 |
| 446 pM | B10 |
| 490 pM | B11 |
| 446 pM | B12 |
| 2730 pM | B13 |
| 5840 pM | B14 |
| 12500 pM | B15 |
| 490 pM | B16 |
| 7070 pM | B17 |
| 22200 pM | B18 |
| 869 pM | B19 |
| 539 pM | B20 |

| apparent Kd (screen) | Binder |
| --- | --- |
| 13800 pM | B21 |
| 446 pM | B22 |
| 593 pM | B23 |
| 490 pM | B24 |
| 490 pM | B25 |
| 1860 pM | B26 |
| 13800 pM | B27 |
| 593 pM | B28 |
| 490 pM | B29 |
| 593 pM | B30 |
| 956 pM | B31 |
| 653 pM | B32 |
| 446 pM | B33 |
| 539 pM | B34 |
| 1160 pM | B35 |
| 2730 pM | B36 |
| 653 pM | B37 |
| 593 pM | B38 |
| 956 pM | B39 |
| 3000 pM | B40 |

| apparent Kd (screen) | Binder |
| --- | --- |
| 446 pM | B41 |
| 446 pM | B42 |
| 4390 pM | B43 |
| 593 pM | B44 |
| 8560 pM | B45 |
| 20200 pM | B46 |
| 446 pM | B47 |
| 539 pM | B48 |
| 593 pM | B49 |
| 2050 pM | B50 |
| 718 pM | B51 |
| 593 pM | B52 |
| 5310 pM | B53 |
| 1050 pM | B54 |
| 446 pM | B55 |
| 9410 pM | B56 |
| 8560 pM | B57 |
| 593 pM | B58 |
| 653 pM | B59 |
